The target in this experiment is HLA-A*02:01/NY-ESO-1 (modified, …) peptide-MHC on peptide-loaded T2 cells (human). Description: cell-based or functional assay.

A value given as a limit tells only on which side of the number the result lay.

Regarding “C2057 + C2058 (TCR 1G4:α95LY alpha ECD and beta ECD, each fused to LILRB1 TM and ICD)”, the EC50[nM] of MAGE-A3 peptide for activator C563 in Jurkat NFAT-luciferase cells co-expressing this inhibitor; T2 cells with 50 uM NY-ESO-1 peptide was greater than 10000 nM.

Values taken from patent publication US20230029341A1.
